This is an account of results in paper doi:10.1101/060434 (bioRxiv, 2016).

The data set concerns the molecule itself. Description: electron microscopy.

B1: hepatitis E virus-like particle (HEV-LP) of the HEV ORF2 capsid protein, amino acids 368-606 (p239) (domain or fragment, UniProt P33426 368-606, looked up)
chain: IALTLFNLADTLLGGLPTELISSAGGQLFYSRPVVSANGEPTVKLYTSVENAQQDKGIAIPHDIDLGESRVVIQDYDNQHEQDRPTPSPAPSRPFSVLRANDVLWLSLTAAEYDQSTYGSSTGPVYVSDSVTLVNVATGAQAVARSLDWTKVTLDGRPLSTIQQYSKTFFVLPLRGKLSFWEAGTTKAGYPYNYNTTASDQLLVENAAGHRVAISTYTTSLGAGPVSISAVAVLAPHSV
On to B1, for which the binding result was “binds”.
